In US20200181257A1 (Chugai, published 2020):
Substitutions are numbered along the chain they refer to. In names and notes the source's numbering stands.

B1: TS20 (antibody)
heavy: QVQLQESGPGLVRPSQTLSLTCTVSGYSITSDHAWSWVRQPPGRGLEWIGYISYSGITTYNPSLKSRVTMLRDTSKNQFSLRLSSVTAADTAVYYCARSLARTTAMDYWGQGSLVTVSSASTKGPSVFPLAPSSKSTSGGTAALGCLVKDYFPEPVTVSWNSGALTSGVHTFPAVLQSSGLYSLSSVVTVPSSSLGTQTYICNVNHKPSNTKVDKKVEPKSCDKTHTCPPCPAPELLGGPSVFLFPPKPKDTLMISRTPEVTCVVVDVSHEDPEVKFNWYVDGVEVHNAKTKPREEMYNSTYRVVSVLTVLHQDWLNGKEYKCKVSNSALPHPIEKTISKAKGQPREPQVYTLPPSRDELTKNQVSLTCLVKGFYPSDIAVEWESNGQPENNYKTTPPVLDSDGSFFLYSKLTVDKSRWQQGNVFSCSVMHEALHNHYTQKSLSLSP
light: not shown
notes: anti-IL6R IgG1, G1d with Q295M/K326S/A330H (EU)
B2: TS36 (antibody)
heavy: B1 heavy with L236K, L237R, S241K, H270K, D272F, Y298G, S300G, N327G, S328K, H332A
light: not shown
notes: anti-IL6R IgG1, G1d with L234K/L235R/S239K/H268K/D270F/Q295M/Y296G/S298G/N325G (EU)
B3: TS35 (antibody)
heavy: B1 heavy with L236K, L237K, Y298G, S300G, N327H, S328K, H332A
light: not shown
notes: anti-IL6R IgG1, G1d with L234K/L235K/Q295M/Y296G/S298G/N325H (EU)
B4: TS27 (antibody)
heavy: B1 heavy with M297L, S328A
light: not shown
notes: anti-IL6R IgG1, G1d with Q295L/K326A/A330H (EU)
B5: TS41 (antibody)
heavy: B1 heavy with L236K, L237R, H270K, D272F, Y298G, S300G, N327H, S328K, H332A
light: not shown
notes: anti-IL6R IgG1, G1d with L234K/L235R/H268K/D270F/Q295M/Y296G/S298G/N325H (EU)
B6: TS40 (antibody)
heavy: B1 heavy with L236K, L237R, H270K, D272F, Y298G, S300G, N327G, S328K, H332A
light: not shown
notes: anti-IL6R IgG1, G1d with L234K/L235R/H268K/D270F/Q295M/Y296G/S298G/N325G (EU)
B7: TS21 (antibody)
heavy: B1 heavy with S328A, H332Y
light: not shown
notes: anti-IL6R IgG1, G1d with Q295M/K326A/A330Y (EU)
B8: TS39 (antibody)
heavy: B1 heavy with L236K, L237R, S241K, Y298G, S300G, N327H, S328K, H332A
light: not shown
notes: anti-IL6R IgG1, G1d with L234K/L235R/S239K/Q295M/Y296G/S298G/N325H (EU)
B9: TS22 (antibody)
heavy: B1 heavy with M297L
light: not shown
notes: anti-IL6R IgG1, G1d with Q295L/K326S/A330H (EU)
B10: TS42 (antibody)
heavy: B1 heavy with L236K, L237R, Y298G, S300G, N327G, S328K, H332A
light: not shown
notes: anti-IL6R IgG1, G1d with L234K/L235R/Q295M/Y296G/S298G/N325G (EU)
B11: TS25 (antibody)
heavy: B1 heavy with S328A
light: not shown
notes: anti-IL6R IgG1, G1d with Q295M/K326A/A330H (EU)
B12: TS43 (antibody)
heavy: B1 heavy with L236K, L237R, Y298G, S300G, N327H, S328K, H332A
light: not shown
notes: anti-IL6R IgG1, G1d with L234K/L235R/Q295M/Y296G/S298G/N325H (EU)
B13: TS37 (antibody)
heavy: B1 heavy with L236K, L237R, S241K, H270K, D272F, Y298G, S300G, N327H, S328K, H332A
light: not shown
notes: anti-IL6R IgG1, G1d with L234K/L235R/S239K/H268K/D270F/Q295M/Y296G/S298G/N325H (EU)
B14: TS30 (antibody)
heavy: B1 heavy with L236K, L237K, S241K, Y298G, S300G, N327G, S328K, H332A
light: not shown
notes: anti-IL6R IgG1, G1d with L234K/L235K/S239K/Q295M/Y296G/S298G/N325G (EU)
B15: TS33 (antibody)
heavy: B1 heavy with L236K, L237K, H270K, D272F, Y298G, S300G, N327H, S328K, H332A
light: not shown
notes: anti-IL6R IgG1, G1d with L234K/L235K/H268K/D270F/Q295M/Y296G/S298G/N325H (EU)
B16: TS34 (antibody)
heavy: B1 heavy with L236K, L237K, Y298G, S300G, N327G, S328K, H332A
light: not shown
notes: anti-IL6R IgG1, G1d with L234K/L235K/Q295M/Y296G/S298G/N325G (EU)
B17: TS29 (antibody)
heavy: B1 heavy with L236K, L237K, S241K, H270K, D272F, Y298G, S300G, N327H, S328K, H332A
light: not shown
notes: anti-IL6R IgG1, G1d with L234K/L235K/S239K/H268K/D270F/Q295M/Y296G/S298G/N325H (EU)
B18: TS26 (antibody)
heavy: B1 heavy with M297L, H332Y
light: not shown
notes: anti-IL6R IgG1, G1d with Q295L/K326S/A330Y (EU)
B19: TS38 (antibody)
heavy: B1 heavy with L236K, L237R, S241K, Y298G, S300G, N327G, S328K, H332A
light: not shown
notes: anti-IL6R IgG1, G1d with L234K/L235R/S239K/Q295M/Y296G/S298G/N325G (EU)
B20: TS28 (antibody)
heavy: B1 heavy with L236K, L237K, S241K, H270K, D272F, Y298G, S300G, N327G, S328K, H332A
light: not shown
notes: anti-IL6R IgG1, G1d with L234K/L235K/S239K/H268K/D270F/Q295M/Y296G/S298G/N325G (EU)
B21: TS31 (antibody)
heavy: B1 heavy with L236K, L237K, S241K, Y298G, S300G, N327H, S328K, H332A
light: not shown
notes: anti-IL6R IgG1, G1d with L234K/L235K/S239K/Q295M/Y296G/S298G/N325H (EU)
B22: TS24 (antibody)
heavy: B1 heavy with H332Y
light: not shown
notes: anti-IL6R IgG1, G1d with Q295M/K326S/A330Y (EU)
B23: TS32 (antibody)
heavy: B1 heavy with L236K, L237K, H270K, D272F, Y298G, S300G, N327G, S328K, H332A
light: not shown
notes: anti-IL6R IgG1, G1d with L234K/L235K/H268K/D270F/Q295M/Y296G/S298G/N325G (EU)
B24: TS23 (antibody)
heavy: B1 heavy with M297L, S328A, H332Y
light: not shown
notes: anti-IL6R IgG1, G1d with Q295L/K326A/A330Y (EU)

Molecular target: T1, human Fcγ receptor hFcgRIa (human, UniProt P12314 16-292, limits assumed)
T1 construct: Construct used in the SPR assay is not described; also called hFcγRIa; FcγI
T1 sequence (P12314 16-292 limits assumed): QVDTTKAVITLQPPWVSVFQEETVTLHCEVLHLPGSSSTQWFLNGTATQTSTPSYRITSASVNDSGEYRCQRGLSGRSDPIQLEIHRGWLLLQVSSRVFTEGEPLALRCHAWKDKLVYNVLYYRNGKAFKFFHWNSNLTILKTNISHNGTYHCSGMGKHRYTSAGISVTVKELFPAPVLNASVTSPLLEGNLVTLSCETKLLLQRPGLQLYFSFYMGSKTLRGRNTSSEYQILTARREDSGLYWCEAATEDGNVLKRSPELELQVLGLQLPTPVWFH
Assay: SPR, antibody captured on Protein A
Procedure: (§1) Furthermore, binding ability to hFcgRs was measured by the method described in Reference Example 3.
(§2) Interactions between antibodies and hFcgRs (hFcgRIa, hFcgRIIa(R), hFcgRIIa(H), hFcgRIIb, hFcgRIIIa(F), and hFcgRIIIa(V)) were analyzed using Biacore T100 (GE Healthcare). HBS-EP+(GE Healthcare) was used for the running buffer, and the measurement temperature was set at 25° C. Protein A (Invitrogen) was immobilized by the amino coupling method, and an antibody of interest was captured thereon. Then, hFcγR solutions diluted using the running buffer were injected to allow interaction with the captured antibody at a flow rate of 30 μL/min for five minutes for hFcγRIa, and at a flow rate of 5 μL/min for one minute for the other hFcγRs. […] Since the hFcγR binding level depends on the amount of captured antibodies, the FcgR-binding levels were corrected so that the capture level of each antibody would be 200 RU (resonance unit) for hFcgRIa and 1000 RU (resonance unit) for the other hFcgRs. The captured antibodies were washed by allowing 10 mM glycine-HCl (pH 1.5) to react for 30 seconds at a flow rate of 30 μL/min to recycle the chip for reuse.

| Binder | binding relative to G1 (=100) |
| --- | --- |
| B1 | 106 |
| B2 | -0.4 |
| B3 | 0.5 |
| B4 | 106 |
| B5 | 0.2 |
| B6 | -1.8 |
| B7 | 107 |
| B8 | 0 |
| B9 | 108 |
| B10 | -0.2 |
| B11 | 105 |
| B12 | -0.9 |
| B13 | 0.6 |
| B14 | 0.1 |
| B15 | -0.9 |
| B16 | -0.9 |
| B17 | 5.1 |
| B18 | 107 |
| B19 | 0.3 |
| B20 | 5.8 |
| B21 | 0.2 |
| B22 | 107 |
| B23 | -0.5 |

Molecular target: T2, human Fcγ receptor hFcgRIIIa (V) (human, UniProt P08637 17-208)
T2 construct: also called FcγRIIIa allotype V158; FcγIIIA
T2 sequence (P08637 other isoform, or with tags, fused parts or gaps limits assumed): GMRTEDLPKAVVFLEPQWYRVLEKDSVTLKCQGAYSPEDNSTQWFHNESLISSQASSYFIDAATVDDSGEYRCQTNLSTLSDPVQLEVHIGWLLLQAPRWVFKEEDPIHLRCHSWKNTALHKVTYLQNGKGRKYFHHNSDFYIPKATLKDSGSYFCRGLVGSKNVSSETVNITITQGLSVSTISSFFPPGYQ
Assay: SPR, antibody captured on Protein A
Procedure: as §1, §2

| Binder | binding relative to G1 (=100) |
| --- | --- |
| B1 | 91.2 |
| B2 | 1.1 |
| B3 | 1.5 |
| B5 | 1 |
| B6 | 1 |
| B7 | 124 |
| B8 | 0.8 |
| B9 | 107 |
| B10 | 1.3 |
| B11 | 92.8 |
| B24 | 137 |
| B12 | 1.1 |
| B13 | 0.6 |
| B14 | 1.1 |
| B15 | 1 |
| B16 | 1.5 |
| B17 | 1.6 |
| B18 | 134 |
| B19 | 0.9 |
| B20 | 1.7 |
| B21 | 1.2 |
| B22 | 121 |
| B23 | 0.9 |

Molecular target: T3, human Fcγ receptor hFcgRIIb (human, UniProt P31994 43-217, limits assumed)
T3 construct: Construct used in the SPR assay is not described; also called FcγRIIb; FcγIIB
T3 sequence: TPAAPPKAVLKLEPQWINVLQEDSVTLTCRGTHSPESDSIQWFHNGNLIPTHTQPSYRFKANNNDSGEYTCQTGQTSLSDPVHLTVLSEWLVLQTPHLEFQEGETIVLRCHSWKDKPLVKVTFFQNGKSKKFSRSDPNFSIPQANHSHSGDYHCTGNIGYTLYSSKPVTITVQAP
Assay: SPR, antibody captured on Protein A
Procedure: as §1, §2

| Binder | binding relative to G1 (=100) |
| --- | --- |
| B1 | 131 |
| B2 | 4.1 |
| B4 | 242 |
| B5 | 4.2 |
| B6 | 0.3 |
| B7 | 121 |
| B8 | 2.5 |
| B9 | 232 |
| B10 | 6.9 |
| B11 | 137 |
| B24 | 226 |
| B12 | 6.2 |
| B13 | 4.5 |
| B14 | 3.8 |
| B15 | 4.6 |
| B16 | 4.2 |
| B18 | 208 |
| B21 | 3.6 |
| B22 | 114 |
| B23 | 1.5 |

Molecular target: T4, human Fcγ receptor hFcgRIIa (R) (human, UniProt P12318 36-217)
T4 construct: also called FcγRIIa (type R); FcγIIA
T4 chain: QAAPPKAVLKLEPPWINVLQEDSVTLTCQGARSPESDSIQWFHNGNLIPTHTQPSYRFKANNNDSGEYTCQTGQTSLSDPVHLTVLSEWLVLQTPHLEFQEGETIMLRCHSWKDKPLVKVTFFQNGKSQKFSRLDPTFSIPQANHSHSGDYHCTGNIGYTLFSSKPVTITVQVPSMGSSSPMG
Assay: SPR, antibody captured on Protein A
Procedure: as §1, §2

| Binder | binding relative to G1 (=100) |
| --- | --- |
| B1 | 116 |
| B2 | 1 |
| B3 | 1.1 |
| B4 | 158 |
| B5 | 1.2 |
| B6 | 1.2 |
| B7 | 113 |
| B8 | 1.5 |
| B9 | 153 |
| B10 | 1.3 |
| B11 | 123 |
| B24 | 153 |
| B12 | 1.7 |
| B13 | 0.9 |
| B14 | 1.2 |
| B15 | 1.2 |
| B16 | 0.9 |
| B17 | 2.1 |
| B18 | 145 |
| B19 | 2.3 |
| B20 | 1.9 |
| B21 | 1.3 |
| B22 | 107 |
| B23 | 0.9 |

Molecular target: T5, human Fcγ receptor hFcgRIIa (H) (human, UniProt P12318 36-217)
T5 construct: also called FcγRIIa (type H); FcγIIA
T5 sequence: T4 chain with R133H
Assay: SPR, antibody captured on Protein A
Procedure: as §1, §2

| Binder | binding relative to G1 (=100) |
| --- | --- |
| B1 | 132 |
| B2 | 0.7 |
| B3 | 1.7 |
| B4 | 151 |
| B5 | 1.4 |
| B6 | 0.7 |
| B8 | 1 |
| B9 | 157 |
| B10 | 1.6 |
| B11 | 125 |
| B24 | 145 |
| B12 | -0.1 |
| B13 | 0.7 |
| B14 | 0.2 |
| B15 | 0.7 |
| B16 | 1.4 |
| B17 | 0.7 |
| B19 | 1.7 |
| B20 | 1.7 |
| B21 | -0.5 |
| B22 | 122 |
| B23 | 1 |
